Sequences and labels used below:
B1: Ras-related protein Rab-38 (Mus musculus), Q8QZZ8 (parent)
chain: MQTPHKEHLYKLLVIGDLGVGKTSIIKRYVHQNFSSHYRATIGVDFALKVLHWDPETVVRLQLWDIAGQERFGNMTRVYYREAMGAFIVFDVTRPATFEAVAKWKNDLDSKLTLPNGKPVSVVLLANKCDQGKDVLMNNGLKMDQFCKEHGFVGWFETSAKENINIDEASRCLVKHILANECDLLESIEPDIVKPHLTSPKVVSCSGCAKS
partner: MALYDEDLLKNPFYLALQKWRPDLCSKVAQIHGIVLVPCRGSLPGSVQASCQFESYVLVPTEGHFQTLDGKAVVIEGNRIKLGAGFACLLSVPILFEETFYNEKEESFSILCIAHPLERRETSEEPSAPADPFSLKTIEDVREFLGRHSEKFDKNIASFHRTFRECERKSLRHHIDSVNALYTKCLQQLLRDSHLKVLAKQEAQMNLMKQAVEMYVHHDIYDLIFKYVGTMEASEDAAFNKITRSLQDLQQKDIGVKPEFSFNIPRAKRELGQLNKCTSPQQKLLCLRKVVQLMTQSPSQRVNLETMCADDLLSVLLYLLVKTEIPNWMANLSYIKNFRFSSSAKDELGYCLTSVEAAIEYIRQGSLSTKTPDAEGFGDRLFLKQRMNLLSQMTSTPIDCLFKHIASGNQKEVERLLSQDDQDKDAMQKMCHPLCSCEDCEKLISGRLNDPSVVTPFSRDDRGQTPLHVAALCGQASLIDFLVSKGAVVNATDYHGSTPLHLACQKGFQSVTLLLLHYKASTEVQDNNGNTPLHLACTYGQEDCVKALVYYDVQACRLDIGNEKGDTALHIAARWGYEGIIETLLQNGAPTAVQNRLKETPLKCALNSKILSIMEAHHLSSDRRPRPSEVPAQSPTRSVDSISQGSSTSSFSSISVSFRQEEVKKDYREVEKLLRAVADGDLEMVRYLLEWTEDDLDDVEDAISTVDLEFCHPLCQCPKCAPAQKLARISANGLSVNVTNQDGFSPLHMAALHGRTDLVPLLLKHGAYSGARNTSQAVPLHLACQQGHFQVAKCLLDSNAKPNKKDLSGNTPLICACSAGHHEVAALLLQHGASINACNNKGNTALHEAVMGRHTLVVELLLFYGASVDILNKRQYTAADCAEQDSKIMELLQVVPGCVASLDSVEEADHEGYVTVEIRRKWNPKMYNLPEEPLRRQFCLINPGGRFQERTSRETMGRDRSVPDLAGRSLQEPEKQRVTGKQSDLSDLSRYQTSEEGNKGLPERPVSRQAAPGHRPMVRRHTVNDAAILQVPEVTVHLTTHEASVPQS

In this test the parent is B1. Particulars: with anr27_mouse Ankrd27, Q3UMR0.
With T23N, the “effect of a mutation on the interaction” value is listed as “disrupting interaction”.

The values are drawn from IntAct's records for PubMed 18477474.
